Measured values: patent publication US20250281611A1 (BIOSCEPTRE AUST, published 2025)

Legend:
CD19 [1] = biological target: T1, CD19 (UniProt P15391 20-556, limits assumed); test: flow cytometry, JeKo-1 cells, BIL03s-AF647 detection, MFI over no-bridge control
T1 construct: whole, on cells; also called CD19 on JeKo-1
T1 sequence (looked up): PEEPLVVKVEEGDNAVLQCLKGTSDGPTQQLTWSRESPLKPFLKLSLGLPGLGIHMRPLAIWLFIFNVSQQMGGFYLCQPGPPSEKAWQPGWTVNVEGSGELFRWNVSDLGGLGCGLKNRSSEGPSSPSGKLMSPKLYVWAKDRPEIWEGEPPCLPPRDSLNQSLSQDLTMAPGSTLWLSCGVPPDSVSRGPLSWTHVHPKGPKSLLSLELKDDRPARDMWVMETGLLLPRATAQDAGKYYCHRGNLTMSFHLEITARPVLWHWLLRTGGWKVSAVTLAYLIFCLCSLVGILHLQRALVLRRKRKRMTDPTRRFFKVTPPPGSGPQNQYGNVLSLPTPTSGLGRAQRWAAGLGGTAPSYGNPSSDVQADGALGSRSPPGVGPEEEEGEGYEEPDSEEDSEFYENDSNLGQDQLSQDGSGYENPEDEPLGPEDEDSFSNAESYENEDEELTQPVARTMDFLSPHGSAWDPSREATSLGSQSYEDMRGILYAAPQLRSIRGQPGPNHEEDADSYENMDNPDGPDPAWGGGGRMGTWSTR
Description: (§1) JeKo-1 cells were incubated with different CD19 BRiDGE variants at saturating concentrations. […] The MFI intensity correlates with the number of secondary bound antibodies bound to the CD19 BRiDGE variants that are only detected if they are bound to the JeKo-1 cells. MFI: median fluorescence intensity. BLitz: Bio-Layer interferometry (BLI) technology using HIS-tag identification tips. […] The higher the MFIR, the stronger the binding.

nfP2X7 CAR 1 [2] = biological target: T2, nfP2X7 CAR 1; test: flow cytometry, anti-His-FITC, MFI on EGFR+ (CAR+) over EGFR- (CAR-) T cells
T2 construct: CAR-positive cells gated by the co-expressed EGFR marker; also called nfP2X7 targeted CAR; nfP2X7 CAR on EGFR+ T cells
Description: (§2) nfP2X₇ CAR T cells were incubated with different BRiDGE variants at saturating concentrations. […] The MFI intensity correlates with the number of secondary bound antibodies bound to the BRiDGEs that are only detected if they are bound to the CAR T cells. EGFR was used as a marker gene to detect the CAR expression. Thus, the EGFR+ T cell population was defined as the CAR expressing cells and the EGFR− T cell population was defined as the CAR negative subset. MFI: median fluorescence intensity. EGFR: epidermal growth factor receptor. BLItz: Bio-Layer interferometry (BLI) technology using HIS-tag identification tips. HIS-tag MFI Ratio: relative index that is calculated by the testing condition MFI divided by the control MFI, which corresponds to the MFI measured on EGFR+ T cells (defined as CAR positive cells) divided by the MFI measured on the EGFR− T cells (defined as CAR negative cells). […] The higher the MFIR, the stronger the binding.

nfP2X7 CAR 1 [3] = biological target: T2, nfP2X7 CAR 1; test: flow cytometry, nfP2X7 CAR 1 T cells (EGFR+ gate), anti-His-FITC detection
Description: as §2

CD19 [4] = biological target: T1, CD19; test: flow cytometry, JeKo-1 cells, bridge at saturating conc., anti-His-FITC detection
Description: as §1

CD19 [5] = biological target: T1, CD19; test: flow cytometry, JeKo-1 cells, anti-His-FITC detection, MFI over no-bridge control
Description: as §1

CD19 [6] = biological target: T1, CD19; test: flow cytometry, JeKo-1 cells, bridge at saturating conc., BIL03s-AF647 detection
Description: as §1

nfP2X7 CAR 1 [7] = biological target: T2, nfP2X7 CAR 1; test: flow cytometry, anti-His-FITC, MFI on EGFR+ (CAR+) T cells over background 0.44
Description: as §2

Binder | MFIR BIL03 AF647 (CD19 [1]) | HisTag MFI Ratio of EGFR+/EGFR- (nfP2X7 CAR 1 [2]) | MFI HisTag FITC in EGFR+ Population (nfP2X7 CAR 1 [3]) | MFI HisTag FITC (CD19 [4]) | MFIR HisTag FITC (CD19 [5]) | MFI Bil03 AF647 (CD19 [6]) | HisTag MFI Ratio (background 0.44) (nfP2X7 CAR 1 [7])
CD19 BRIDGE variant B8 (Fab, V domains shown) VH: EVQLVESGGGLVKPGGSLKLSCAASGYTFTSYVMHWVRQAPGKGLEWIGYINPYNDGTKYNEKFQGRVTISSDKSISTAYMELSSLRSEDTAMYYCARGTYYYGTRVFDYWGQGTLVTVSS VL: DIVMTQSPATLSLSPGERATLSCRSSKSLQNVNGNTYLYWFQQKPGQSPQLLIYRMSNLNSGVPDRFSGSGSGTEFTLTISSLEPEDFAVYYCMQHLEYPITFGAGTKLEIKR | 23 | 4.4 | 2.53 | 3.58 | 4.65 | 10.6 | 5.8
CD19 BRIDGE variant B14 (Fab, V domains shown) VH: EVQLVESGGGLVKPGGSLKLSCAASGYTFTSYVMHWVRQAPGKGLEWIGYINPYNDGTKYNEKFQGRVTISSDKSISTAYMELSSLRSEDTAMYYCARGTYYYGTRVFDYWGQGTLVTVSS VL: DIVMTQSPATLSLSPGERATLSCRSSKSLQNVNGNTYLYWFQQKPGQSPQLLIYRMSNLNSGVPDRFSGSGSGTEFTLTISSLEPEDFAVYYCMQHLEYPITFGAGTKLEIKR | 15.8 | 4.5 | 2.41 | 3.12 | 4.05 | 7.27 | 5.5
CD19 BRIDGE variant B13 (Fab, V domains shown) VH: EVQLVESGGGLVKPGGSLKLSCAASGYTFTSYVMHWVRQAPGKGLEWIGYINPYNDGTKYNEKFQGRVTISSDKSISTAYMELSSLRSEDTAMYYCARGTYYYGTRVFDYWGQGTLVTVSS VL: DIVMTQSPATLSLSPGERATLSCRSSKSLQNVNGNTYLYWFQQKPGQSPQLLIYRMSNLNSGVPDRFSGSGSGTEFTLTISSLEPEDFAVYYCMQHLEYPITFGAGTKLEIKR | 11.5 | 4.1 | 2.13 | 2.99 | 3.88 | 5.28 | 4.8
CD19 BRIDGE variant B9 (Fab, V domains shown) VH: EVQLVESGGGLVKPGGSLKLSCAASGYTFTSYVMHWVRQAPGKGLEWIGYINPYNDGTKYNEKFQGRVTISSDKSISTAYMELSSLRSEDTAMYYCARGTYYYGTRVFDYWGQGTLVTVSS VL: DIVMTQSPATLSLSPGERATLSCRSSKSLQNVNGNTYLYWFQQKPGQSPQLLIYRMSNLNSGVPDRFSGSGSGTEFTLTISSLEPEDFAVYYCMQHLEYPITFGAGTKLEIKR | 10.5 | 4.1 | 2.32 | 3 | 3.9 | 4.82 | 5.3
CD19 BRIDGE variant B11 (Fab) heavy: EVQLVESGGGLVKPGGSLKLSCAASGYTFTSYVMHWVRQAPGKGLEWIGYINPYNDGTKYNEKFQGRVTISSDKSISTAYMELSSLRSEDTAMYYCARGTYYYGTRVFDYWGQGTLVTVSSASTKGPSVFPLAPSSKSTSGGTAALGCLVKDYFPEPVTVSWNSGALTSGVHTFPAVLQSSGLYSLSSVVTVPSSSLGTQTYICNVNHKPSNTKVDKKVEPKSCHHHHHH light: GHNYTTRNILPGLNITSTFHKTSGSGKGSEPKSSDKTHTGSDIVMTQSPATLSLSPGERATLSCRSSKSLQNVNGNTYLYWFQQKPGQSPQLLIYRMSNLNSGVPDRFSGSGSGTEFTLTISSLEPEDFAVYYCMQHLEYPITFGAGTKLEIKRTVAAPSVFIFPPSDEQLKSGTASVVCLLNNFYPREAKVQWKVDNALQSGNSQESVTEQDSKDSTYSLSSTLTLSKADYEKHKVYACEVTHQGLSSPVTKSFNRGEC | 14 | 4 | 2 | 3.08 | 4 | 6.43 | 4.5
CD19 BRIDGE variant B16 (Fab) heavy: EVQLVESGGGLVKPGGSLKLSCAASGYTFTSYVMHWVRQAPGKGLEWIGYINPYNDGTKYNEKFQGRVTISSDKSISTAYMELSSLRSEDTAMYYCARGTYYYGTRVFDYWGQGTLVTVSSASTKGPSVFPLAPSSKSTSGGTAALGCLVKDYFPEPVTVSWNSGALTSGVHTFPAVLQSSGLYSLSSVVTVPSSSLGTQTYICNVNHKPSNTKVDKKVEPKSCHHHHHH light: GHNYTTRNILPGLNITSTFHKTSGSGKEPKSSDKTHTGGGGSDIVMTQSPATLSLSPGERATLSCRSSKSLQNVNGNTYLYWFQQKPGQSPQLLIYRMSNLNSGVPDRFSGSGSGTEFTLTISSLEPEDFAVYYCMQHLEYPITFGAGTKLEIKRTVAAPSVFIFPPSDEQLKSGTASVVCLLNNFYPREAKVQWKVDNALQSGNSQESVTEQDSKDSTYSLSSTLTLSKADYEKHKVYACEVTHQGLSSPVTKSFNRGEC | 17.6 | 4.6 | 2.34 | 2.86 | 3.71 | 8.08 | 5.3
CD19 BRIDGE variant B12 (Fab) heavy: EVQLVESGGGLVKPGGSLKLSCAASGYTFTSYVMHWVRQAPGKGLEWIGYINPYNDGTKYNEKFQGRVTISSDKSISTAYMELSSLRSEDTAMYYCARGTYYYGTRVFDYWGQGTLVTVSSASTKGPSVFPLAPSSKSTSGGTAALGCLVKDYFPEPVTVSWNSGALTSGVHTFPAVLQSSGLYSLSSVVTVPSSSLGTQTYICNVNHKPSNTKVDKKVEPKSCHHHHHH light: GHNYTTRNILPGLNITSTFHKTSGSGKGGGGSEPKSSDKTHTGSDIVMTQSPATLSLSPGERATLSCRSSKSLQNVNGNTYLYWFQQKPGQSPQLLIYRMSNLNSGVPDRFSGSGSGTEFTLTISSLEPEDFAVYYCMQHLEYPITFGAGTKLEIKRTVAAPSVFIFPPSDEQLKSGTASVVCLLNNFYPREAKVQWKVDNALQSGNSQESVTEQDSKDSTYSLSSTLTLSKADYEKHKVYACEVTHQGLSSPVTKSFNRGEC | 19.7 | 4.2 | 2.12 | 3.36 | 4.36 | 9.08 | 4.8
CD19 BRIDGE variant B15 (Fab) heavy: EVQLVESGGGLVKPGGSLKLSCAASGYTFTSYVMHWVRQAPGKGLEWIGYINPYNDGTKYNEKFQGRVTISSDKSISTAYMELSSLRSEDTAMYYCARGTYYYGTRVFDYWGQGTLVTVSSASTKGPSVFPLAPSSKSTSGGTAALGCLVKDYFPEPVTVSWNSGALTSGVHTFPAVLQSSGLYSLSSVVTVPSSSLGTQTYICNVNHKPSNTKVDKKVEPKSCHHHHHH light: GHNYTTRNILPGLNITSGGGGSEPKSSDKTHTGGGGSDIVMTQSPATLSLSPGERATLSCRSSKSLQNVNGNTYLYWFQQKPGQSPQLLIYRMSNLNSGVPDRFSGSGSGTEFTLTISSLEPEDFAVYYCMQHLEYPITFGAGTKLEIKRTVAAPSVFIFPPSDEQLKSGTASVVCLLNNFYPREAKVQWKVDNALQSGNSQESVTEQDSKDSTYSLSSTLTLSKADYEKHKVYACEVTHQGLSSPVTKSFNRGEC | 18.7 | 4.8 | 2.61 | 2.91 | 3.78 | 8.58 | 5.9
